Patent US20140241984A1

How the values were obtained:
[1] = biological target: α-synuclein fibrils (human) (UniProt P37840); test: inhibition ELISA; fibrils against monomers
[2] = biological target: α-synuclein fibrils (human) (UniProt P37840); test: SPR, BIAcore X100; fibrils immobilised on CM5, mAb injected at 0.01-10 nM

| Fold Affinity to Fibrils [1] | Kd [2] | koff [2] | kon [2] | Substance |
| --- | --- | --- | --- | --- |
| 0.476 fold | – | – | – | Syn-1 (Mouse anti-α-synuclein; BD Bioscience) (antibody) |
| – | 2.56 nM | 0.000422 s⁻¹ | 165000 M⁻¹ s⁻¹ | mAb 211 (Santa Cruz Biotechnology) (antibody) |
